Experimental data taken from US20170275380A1 (ROCHE DIAGNOSTICS OPERATIONS, published 2017).
Each block holds one binder with its values, some of them ahead of it. No end group written: not given here.

How the values were obtained:
[1] = molecular target: T1, IGF-1R(1340-1366)[1346-pTyr; Glu(Bi-PEG-1340]amid (phosphotyrosine at 1346; PEG-linker with biotin bound via glutamic acid corresponding to position 1340; C-terminal amide); experiment: SPR (Biacore 2000, 25 C); hybridoma supernatant 1:2 over biotinylated peptide on SA chip
T1 construct: also called pIGF-1R peptide (biotinylated); phosphorylated IGF-1R peptide
T1 peptide: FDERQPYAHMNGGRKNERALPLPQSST
Procedure: (§1) Further, surface plasmon resonance was used to determine the antigen specificity. A BIACORE™ 2000 instrument (GE Healthcare) was used with a BIACORE™ SA sensor mounted into the system at T=25° C. and was preconditioned at 100 μl/min with 3×1 min injection of 1 M NaCl in 50 mM NaOH and 1 min 10 mM HCl. The system buffer was HBS-ET (10 mM HEPES pH 7.4, 150 mM NaCl, 1 mM EDTA, 0.05% TWEEN® 20). The sample buffer was the system buffer+1 mg/ml CMD (Carboxymethyldextrane, Sigma).
(§2) Subsequently, biotinylated peptides were captured on the SA surface in the respective flow cells. The flow cells finally were saturated with 2 μM d-biotin. […] Flow cell 1 served as a reference. A blank buffer injection was used instead of an antigen injection to double reference the data by buffer signal subtraction. The data was evaluated according to the BIACORE™ evaluation software 1.1.1. The signal height was measured at the end of the injection time, Binding Late (RU).

[2] = molecular target: T2, IGF-1R(1340-1366); Glu(Bi-PEG-1340]amid (PEG-linker with biotin bound via glutamic acid corresponding to position 1340; C-terminal amide); experiment: as above
T2 construct: also called IGF-1R peptide (biotinylated, non-phosphorylated); IGF-1R(1340-1366)PEG-Bi
T2 peptide: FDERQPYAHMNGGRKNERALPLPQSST
Procedure: as §1, §2

[3] = molecular target: Bi-InsulinR(1356-1382)p1361 (phosphotyrosine at 1361; biotin); experiment: as above
Procedure: as §1, §2

[4] = molecular target: T3, human HER3(1242-1267)-Bi-PEG-amide (human, Bi-PEG (biotin-PEG); C-terminal amide); experiment: SPR kinetic screening (Biacore A100); mAb captured by anti-mouse IgG Fc; peptide grafted on streptavidin as analyte; Langmuir model; anti-HER3 antibody, HER3 peptide
T3 construct: Injected as analyte singly grafted on streptavidin; also called HER3 peptide
T3 peptide: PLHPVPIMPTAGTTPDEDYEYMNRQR
Procedure: (§3) A BIACORE™ A100 instrument under control of the software version V1.1 is used. A BIACORE™ CMS chip is mounted into the instrument and is hydrodynamically addressed conditioned according to the manufacturer's instructions. As a running buffer an HBS-EP buffer is used (10 mM HEPES (pH 7.4), 150 mM NaCl, 1 mM EDTA, 0.05% (w/v) P20). A polyclonal rabbit anti-mouse IgG Fc capture antibody is immobilized at 30 μg/ml in 10 mM sodium acetate buffer (pH 4.5) to spots 1, 2, 4 and 5 in flow cells 1, 2, 3 and 4 at 10,000 RU. The antibody is covalently immobilized via NHS/EDC chemistry. The sensor is deactivated thereafter with a 1 M ethanolamine solution. Spots 1 and 5 are used for the determination and spots 2 and 4 are used as reference. Prior to application to the sensor chip the hybridoma supernatants containing mAbs are diluted 1:2 in HBS-EP buffer. The diluted solution is applied at a flow rate of 30 μl/min for 1 min. Immediately thereafter the analyte, human HER3(1242-1267)-Bi-PEG-amide (SEQ ID NO:26) or human HER2(1223-1236)-Bi-PEG-amide (SEQ ID NO:25), singly grafted on streptavidin, is injected at a flow rate of 30 μl/min for 2 min. Thereafter, the signal is recorded for 5 min dissociation time. The sensor is regenerated by injecting a 10 mM glycine-HCl solution (pH 1.7) for 2 min, at a flow rate of 30 μl/min.

[5] = molecular target: T4, human HER2(1223-1236)-Bi-PEG-amide (human, also: Bi-PEG (biotin-PEG), place not given here); experiment: SPR kinetic screening (Biacore A100); mAb captured by anti-mouse IgG Fc; peptide grafted on streptavidin as analyte; Langmuir model; anti-HER2 antibody, HER2 peptide
T4 construct: Injected as analyte singly grafted on streptavidin; also called HER2 peptide
T4 peptide: WDQDPPERGAPPST-NH2
Procedure: as §3

Chain of Bi-InsulinR(1356-1382)p1361 (phosphotyrosine at 1361; biotin) (peptide, as listed by the source): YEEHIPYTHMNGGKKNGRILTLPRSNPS

Binding Late (RU) [1]: 265 RU
Binding Late (RU) [2]: 199 RU
Binding Late (RU) [3]: 0 RU
B1: mAb 1.4.168 (antibody, V domains shown)
VH: DVKLVESGGGLVKPGGSLKLSCAASGFTFSDYPMSWVRQTPEKRLEWVATITTGGTYTYYPDSIKGRFTISRDNAKNTLYLQMGSLQSEDAAMYYCTRVKTDLWWGLAYWGQGTLVTVSA
VL: QLVLTQSSSASFSLGASAKLTCTLSSQHSTYTIEWYQQQPLKPPKYVMELKKDGSHTTGDGIPDRFSGSSSGADRYLSISNIQPEDESIYICGVGDTIKEQFVYVFGGGTKVTVLG
notes: Murine monoclonal IgG from hybridoma; also called M-1.4.168-IgG; M-1.004.168-IgG

koff [4]: 0.0023 s⁻¹
B2: antibody 7.2.32 (antibody, V domains shown)
VH: EVQLQESGGGLVQPKGSLQLSCAASGFTFNTYAMHWVRQAPGKGLEWVARIRTESSDYATDYADSVKDRFIISRDDSQNMLYLQMNNLKSEDTAIYYCVRSSGFDYWGQGTTLTVSS
VL: DIQMTQSPSLPVSLGDQASISCRSSQSLVHDNGNTYLHWFLQKPGQSPKLLIYKVSNRFSGVPDRFGGSGSGTDFTLKISGVEAEDLGVYFCSQGTHVPTFGGGTKLEIK
notes: Mouse monoclonal antibody, tested from hybridoma supernatant captured by anti-mouse IgG Fc; also called selected antibody directed against HER3

koff [5]: 0.000963 s⁻¹
B3: antibody 4.1.43 (antibody, V domains shown)
VH: EVQLQQSGPVLVKPGASVKMSCRPSGYTFTDYNMHWVKQSHEKSLEWIGYINPKNGIISYNQKFKDKATLTVNKSSRTAYMELRSLTSEDSAVYFCAGDYWGQGTSVTVSS
VL: DVVMTQTPLSLPVSLGDQASISCRSSQSLVHSNGNTYLHWYLQKPGQSPKLLISKVSNRFSGVPDRFSGSGSGTDFTLKISRVEAEDLGVYFCSQSIHLPWTFGGGTKLEIK
notes: Mouse monoclonal antibody, tested from hybridoma supernatant captured by anti-mouse IgG Fc; also called selected antibody directed against HER2
